According to the nanobody polyreactivity screen of Harvey et al. (2022):

Experiment: yeast display, Sf9 membrane polyspecificity reagent, FACS + sequencing; frameworks hold sequencing errors
In short: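 After 36–48 hours of galactose induction, yeast (Saccharomyces cerevisiae BJ5465) displaying a synthetic nanobody library were stained at 4 °C for 1 hour with 10% biotinylated, detergent-solubilized Sf9 membrane reagent. Streptavidin microbeads enriched the stained cells before FACS sorting into low and high (top ~1%) gates on anti-HA and streptavidin fluorescence. Each clone's polyreactivity label reflects its gate of origin.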

Sequence	polyreactivity (PSR sort gate)
QVQLVESGGGLVQAGGSLRLICAASGSIFITYDMGWYRQAPGKERELVATISTTGGTTYYADSVKGRFTISRDNAKNTVYLQMNSLKPEDTAVYYCATAGPPRGYYAPITLDDYWGQGTQVTVSS	low polyreactivity
QVQLVESGGGLVQAGGSLRLSCAGSGIIFRGYDMGWYRQAPGKEMELVAAITWRGGSTYYADSVKGRFTISRDNAKNTVYLQMNSLKPEDTAVYYCAAVRKHSWFRHMDYWGQGTLVTVSS	high polyreactivity
QVQLVESGGGLVQEGGSLCLSCAASGIFVYNAMGWYRQAPGKEREFVAAINKSGASTFYADSVKGRFTISRDNAKNTVYLQMNSLKPEDTAVYYCNAGTLYYRYRWGHYYDSWGQGTQVTVSS	low polyreactivity
QVQLVESGGGLVQAGGSLRLSCAASGYTRFYAMGWYRQAPGTERELVAAISSSGGTTYYADSVKGRFTISRDNAKNTVYLQMNSLKPEDTAVYYCAKYVSYSRTLYDYWGQGTQVTVSS	low polyreactivity
QVQLVESGGRLVQAGGSLRLSCAASGSTFVCYAMGWYRQAPGKERELVAAISSGGRTHYADSVMARFTISRDNAKNTVILQMNSLKREDTAFYYCNAAYYILRFRYDYWGQGTQVTVSS	high polyreactivity
QVQLVESGGGIVQAGGSLRLSCAASGLIIQNNAMVWNRQAPGKERELVAAITSDGSTYADSVKGRFTISRDNAKNTVYLQMNSLKPEDTAVYYCNADGITSLPVPALDYWGQGTQVTVSS	low polyreactivity
QVQLVESGGGLVQAGGSLRLSCAASGRTFFKYAMGGYRQAPGKERELVAAITGRGDRTYYADSVKGRFTISRDNAKNTVYLQMNSLKPEDTAVYYCAAGAPAHHASFYYWGQGTQVTVSS	high polyreactivity
QVQLVESVGGFVQAGGSLRLSGAASGRTFNFNTMGWSRQAPGKERELVASITSGGSTNYADSVKVRFTISRDNAKNTVYLQMNILKPEDPAVYYCAVTVSGPYAYDYWGQGTQVTVSS	low polyreactivity
QVQLVESGGGLVQAGGSLRLSCAASGYIFLGYDMVWYRQAPGKERELVAVINWSGGRTRYADSVKGRFTISRDNAKNTVYLQMNSLKPEDTAVYYCAAERSITYDYWGQGSQVTVSS	high polyreactivity
QVQLVESGGGLVQAGGSLRLSCAASGRIFGSYAMGWYRPAPGKERELVAAINRSGGSTRYADSVKGRFTISRDNAKNTVYLQMNSLKPEDTAVYYCAAPSYARYYAYDSWGQGTQVTVSS	high polyreactivity
QVQLVESGGGLVQAGGSLRLSCAASGSIFHYYAMGWYRQAPGKERELVAAISWSGGRTYYADSVKGRFTISRDNAKNTVYLQMNSLKPEDTAVYYCAADYDGSFNTPYLLDPYDYWGQGTQVTVSS	high polyreactivity
QVQLVESGGGLVQAGGRLRLSCAASGGIFGQNAMRWYRQAPGKERELVAGISASGGSTYYADSVKGRFTISRDNAKNTVYLQRNSLKPEDTAVYYCAARTKRRRYDYWGQGTQVTVSS	high polyreactivity
QVQLEESGRGLVQAGGSLRLSCAASGSTLSTYSMGWYRQAPGKERELVAAITWSDDSTYYADSVKGRFTISRDNAKNTFYLQMNSLKPEDTAVYYCAAEYISWYFGYDYWGQGTQVTVSS	high polyreactivity
QVQLVESGGGLVQAGGSLRLSCAASGYISFGYAMGWYRQAPGKEREFVAAISVGGGTTYYADSVKGRFTISRDNAKNTVYLQMNSLKPEDTAVYYCAARSYSYAPRRGYWGQGTQVTVSS	high polyreactivity
QVQLVESGGGLVQAGGSLRLSCAASGIIFKSYAKGWYRQAPGKARELVAAMSWIGGSTYYADSVKGRFTISRDNAKHTVYFQMTSLKPEATAVYYCNARQYRRSRMDYWGQGTQVTVSS	high polyreactivity
QVQLVESGGGLVQAGGSLRLSCAASGSIFAKNAMGWYRQAPGKERELVAGIDFSGGSTYYADSVKGRFTLSRDNAKNTVYLQMNSLKPEDTAVYYCAADWAYKYELDYWGQGTQLTVSS	low polyreactivity
QVQLVESGGGLVQAGGSLRLSCAASGSTFGGYAMGWNRQAPGKEREWVAAISQSGTRTYYADSVKGRFTISRDNAKNTVYLQMNSLKPEDTAVYYCAAVKRFRKYDYWGQGTQVTVSS	high polyreactivity
QVQLVESGGGLVQAGGSLRLSCAASGNIFSAYAMGWYRQAPGTERELVAAISRSVTITYYADSVKGRFTISRDNAKKTDYLQMNSLKPEDTAVYYCAARDYHYPKFGYCGQGTQVTVSS	high polyreactivity
QVQHVESGGGLVQAGGSLRLSCAASGSIFGKYAMGWYRQAPGKERELVARISRSSGSTYYADSVKGRFTISRDNAKNTVYLQMNSLKPEDTAVYYCAARAYLNQARPKYGYSYDYWGQGTQVTVSS	high polyreactivity
QVQLVESGGGLVQAGGSLRLSCAASGRIFGYNALGWYRQAPGKERELVAAINSDGSKNYADSVKGRFTISRDNAKNTVYFQMNSLNPEDTALYYCNKELYPVGDYEYWGEGTQVTVSS	low polyreactivity
QVQLVESGGGLVQAGGSLRLSCAAYGRIFLPNSMGWYIQAPGKERELVAAITWSGGSTYYADSVKGRFTISRDNAKYTVFLQMTSLIPEDTAVYYGAGRGFSYRRRSQQFDYWGLGTQVTVSS	high polyreactivity
QVQLVESGGGLVQAGGSLRLSCAASGRTFQWYAMGWYRQAPGKERELVAAISYNGDSTYYADSVKGRFTISRDNAKNTVYLQMNSLKPEDTAVYYCAATPYPYYGYDYWGQGTQVTVSS	high polyreactivity

Sequence	polyreactivity (PSR sort gate)
QVHLVESGGGLVQAGGSLRLSCAASGRTFRLYAMAWSRQAPGKERELVARISRGGSTYYADSVKGRFTISRDNAKNTVYLLMNSLKREDTAVYYCAAEGWGLSHRYDYWGQGTQVTVSS	high polyreactivity
QVQLVESGGGLVQAGGSLRLSCAASGFTFAFYTMGWYRQAPGKERELVAGITRSGTNTYYADSVKGRFTISRDNAKNTVYLQMNSLKPEDTAVYYCAAAIRPGMDYWGQGTQVTVSS	high polyreactivity
QVQLVESGGGLVQAGGSLRLSCAASGRIIRINAMGWYRQAPGKERELVATISRSGGRTYYADSVKGRFTISRDNAKNTVYLQMNSLKPEDTAVYYCNADHFYYSSQYGYWGQGTQVTVSS	high polyreactivity
QVQLVESGGGLVQAGGSLRLSCAASGSIFRYYAMGWYRQAPGKERELVATISSSGGTTYYADSVKGRFTISRDNAKNTVYLQMNSLKPEETAVYYCAALWTWHVSYPVHEYDFWGQGTQVTVSS	low polyreactivity
QVQLVESGGGLVQAGGSLRLSCAASGRTFYIYAMGWYRQAPGKERELVAAITSVGSTNYADSVKGRFTISRDNAKNTVYLQMNSLKPEDTAVYYCAAASTEGTSGDYDYWGQGTQVTVSS	low polyreactivity
QVQLVESGGGLVQAGGSLRLSCAASGFTFYRYAMGWYRQAPWKERELVAVISGNAGSTYYADSVKGRFTISRDNAKNTVYLQMNSLKPEDTAVYYCNARKARAYGTFEYWGQGTQVTVSS	high polyreactivity
QVQLVESGGGLVQAGGSLRLSCAASGSIFRVNDMGWYRQAPGKERELVAAISSNGDDTFYADSVKGRFTISRDNAKNTVYLQMNSLKPEDTAVYYCNAESPTYPDYYFKYTHYDYWGQGTQVTVSS	low polyreactivity
QVQLVESGGGFVQAGGSLRLSCAASGITFYSNAMGWYRQAPGKERELGAAISTTGGRTYYADSVKRRFTISRDNAKNTVYLHMNSLKPEDTAVYYCTKAWGRGSLTEPYDYWGQGTQVTVSS	high polyreactivity
QVQLVESGGGLVQSGGSLLLSCAPSGSTFYEYALGGYRQAPGKDRELVAAITSGGSTYYADSVKGRFTISRDNAKNNDYLQMNSLKPEETAVYYCAADPRIRRGDRSTHGYDYWGQGTQVTVSS	low polyreactivity
QLQLVESGGGLVQAGGSLRLSCAASGSIFASNAMGWYRQAPGKERELVAAISSGGSRTYYADSVKGRFTISRDNAKNSVYLQMNSLKPEDTAVYYCNTVWFYGAKYDYWGQGTQVTVSS	high polyreactivity
QVQLVESAGGLVQAGGSLSLSCAASGRTFSYYAMGWYRHARGKERELVAAISRRGGSTYYADSVKGRLTISRDNAKNTVYLQMISLKPEDTAVDYCNARGRSTVGGGFYYWGLGTQVTVSS	high polyreactivity
QVQLVESGGGLVQAGGSLRLSCAASGFIFATYAMGWYRQAPGKERELVASINWSGGRTYYADSVKGRFTISRDNAKNTVYFQMNSLKPEDTEVYYCAARISTRYEYWGHGTQVTVSS	high polyreactivity
QVQLVESGGGLVQAGGSLRLSCAASGSTFWFYAMGWYRQAHGKERELVAVISNSGSTYYADSVKGRFTISRDNAKNTVYLQMNSLKPEDTAVYYCNKDGGGDSYWYDYWGQGTQVTVSS	low polyreactivity
QVQLVESGGGLVQAGGSLRLSCAASGLIFGRNVMGWYRQAPGKERELVAAISWSGGRTYYADSVKGRFTISRDNEKNTVYLQMNSLKPEDTAVYYCAAGYPYYYWTPYYYWGQGTQVTVSS	high polyreactivity
QVQLVESGGGLDQAGGSLRLSCAASGRISYRYAMGSYRQAPGKEMELVASISSGVSTYYADSVKGRFTISRDNAKNTVYLQMHSLKPEDSAVYFCAAAYWFHNDYWGLGTQVTVSS	high polyreactivity
QVQLVESGGVLVQAGGSLRLSCAASGFTFGPYAMGWYRPAPGKERELVATIRSGDSTNYADSVKGRFTISRDNAKNTVYLQMNSLKPEDTAVYYCARDARASARRKRYDYGGQGTQVTVSS	low polyreactivity
QVQLVESGGGLVQAGGSLRLSCDASGFILYYNAMGWYRQAPGKEREMVAAITSGGGGTYYADSVKGRFTNSRDNAKNTVYFQMNSLNPEDTAVYYCNTRFGYRGGVDFDYWGQGTQVTVSS	high polyreactivity
QVQLVESGGGLVQAAGSLRLSCAASGRTFSANAMGWYRQAPGKERELVATISSGGRTNYADSVKGRFTISRDNAKNTVYLQMNSLKPEDTAVYYCAKRGPYKRWYGRYDYCGQGTQVTVSS	low polyreactivity
QVQLVESGGGLVQAGGSLRLSCAASGLTFASNAMGWYRQAPGKERELVAAISWSDGSTYYADSVKGRFTISRDNAKNTVYLQMNSLKPEDTAVYYCAAESYFFSPRTREKFDYWGQGTQVTVSS	low polyreactivity
QVQLVESGGGLVQAGGSLRLSCAASGFIFRFNAMGWYRQAPGKERELVAVIRWSSGSTYYADSVKGRFTISRDNAKNTVYLQMNSLKPEDTAVYYCAAYVVPAYYYWGQGTQVTVSS	low polyreactivity
QVQLVESWGGLVQAGGSLRLSCAASGSNFELYAMGWYRQAPGKERELVASITWSASNTHYADSVKGRFTISRDNAKNTVYLQINSLKTEDTAVYYCAKDVLYGLFDGDSWGQGTQVTVSS	low polyreactivity
